From article doi:10.1101/2020.07.21.214338 come the findings set out here.

Usually Kd stands for the constant that tells how readily two partners part at equilibrium. Read a low Kd as tighter binding.

What all share (experiment): native gel or EMSA
(In general: In EMSA bound probe runs differently from free probe, usually more slowly.)

Experiment [1] addresses 12x nucleosome array (human | Xenopus laevis).
In experiment [2] the target is 209-bp nucleosome core particle (human | Xenopus laevis).
Experiment [3] concerns the target 147-bp nucleosome core particle (human | Xenopus laevis).

Take CBP core-ZZ-TAZ2 (domain or fragment): the figures for the Kd in experiment [1], in experiment [2] and in experiment [3] were 309 nM, 540 nM and 1000 nM, respectively.
